# Measurements from the supplement of paper PMC10567573.
# B1: PDS5B (parent)
# chain: ITYPPGVKEISDKISKEEMVRRLK
# Variants of: B1
# Assay: protein stability index of a GFP-peptide fusion (GPS, HEK-293T) (PSI 1-6); higher = more stable
# Details: c terminus: a fixed tail appended
# 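Further: lentivirally expressed fusions sorted by FACS into six bins by GFP to DsRed ratio, PSI derived from sequencing read proportions per bin multiplied by bin number.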
row,Variant,protein stability index
1,ITYPPGVKEISDKASKEEMVRRLK [I14A],4.5
2,ITYPPGVKEISDKQSKEEMVRRLK [I14Q],5.02
3,ITYPPGVKEISDKNSKEEMVRRLK [I14N],2.93
4,ITYPPGVKEISDKHSKEEMVRRLK [I14H],5.35
5,ITYPPGVKEISDKMSKEEMVRRLK [I14M],4.34
6,ITYPPGVKEISDKCSKEEMVRRLK [I14C],3.27
7,ITYPPGVKEISDKESKEEMVRRLK [I14E],4.61
8,ITYPPGVKEISDKTSKEEMVRRLK [I14T],4.08
9,ITYPPGRKEISDKISKEEMVRRLK [V7R],4.5
10,ITYPPGLKEISDKISKEEMVRRLK [V7L],3.67
11,ITYPPGEKEISDKISKEEMVRRLK [V7E],3.09
12,ITYPPGWKEISDKISKEEMVRRLK [V7W],3.82
13,ITYPPGAKEISDKISKEEMVRRLK [V7A],4.21
14,ITYPPGGKEISDKISKEEMVRRLK [V7G],4.01
15,ITYPPGHKEISDKISKEEMVRRLK [V7H],4.04
16,ITYPPGVKEIFDKISKEEMVRRLK [S11F],3.3
17,ITYPPGVKEIKDKISKEEMVRRLK [S11K],4.72
18,ITYPPGVKEITDKISKEEMVRRLK [S11T],4.08
19,ITYPPGVKEINDKISKEEMVRRLK [S11N],3.98
20,ITYPPGVKEIPDKISKEEMVRRLK [S11P],4.29
21,ITYPPGVKEIIDKISKEEMVRRLK [S11I],2.83
22,ITYPPGVKEILDKISKEEMVRRLK [S11L],2.38
23,LTYPPGVKEISDKISKEEMVRRLK [I1L],3.95
24,PTYPPGVKEISDKISKEEMVRRLK [I1P],4.78

row,Variant,protein stability index
1,TTYPPGVKEISDKISKEEMVRRLK [I1T],4.96
2,GTYPPGVKEISDKISKEEMVRRLK [I1G],3.81
3,DTYPPGVKEISDKISKEEMVRRLK [I1D],4.99
4,NTYPPGVKEISDKISKEEMVRRLK [I1N],5.13
5,VTYPPGVKEISDKISKEEMVRRLK [I1V],4.62
6,YTYPPGVKEISDKISKEEMVRRLK [I1Y],3.78
7,WTYPPGVKEISDKISKEEMVRRLK [I1W],4.64
8,ITYPPGVKEISDKIRKEEMVRRLK [S15R],3.7
9,ITYPPGVKEISDKIDKEEMVRRLK [S15D],4.26
10,ITYPPGVKEISDKIMKEEMVRRLK [S15M],4.01
11,ITYPPGVKEISDKIYKEEMVRRLK [S15Y],3.46
12,ITYPPGVKEISDKIEKEEMVRRLK [S15E],4.81
13,ITYPPGVKEISDKIQKEEMVRRLK [S15Q],3.65
14,ITYPPGVKEISDKINKEEMVRRLK [S15N],3.89
15,ITYPPGVKEISDKIWKEEMVRRLK [S15W],2.13
16,ITYPPGVKEISDKISKEEYVRRLK [M19Y],3.96
17,ITYPPGVKEISDKISKEEEVRRLK [M19E],4.79
18,ITYPPGVKEISDKISKEEPVRRLK [M19P],4.64
19,ITYPPGVKEISDKISKEECVRRLK [M19C],4.1
20,ITYPPGVKEISDKISKEEAVRRLK [M19A],3.68
21,ITYPPGVKEISDKISKEETVRRLK [M19T],4.99
22,ITYPPGVKEISDKISKEEKVRRLK [M19K],4.54
23,ITYPPGVKEISDKISKAEMVRRLK [E17A],3.14
24,ITYPPGVKEISDKISKCEMVRRLK [E17C],2.91

row,Variant,protein stability index
1,ITYPPGVKEISDKISKFEMVRRLK [E17F],2.41
2,ITYPPGVKEISDKISKLEMVRRLK [E17L],2.59
3,ITYPPGVKEISDKISKQEMVRRLK [E17Q],3.17
4,ITYPPGVKEISDKISKGEMVRRLK [E17G],3.52
5,ITYPPGVKEISDKISKTEMVRRLK [E17T],4.68
6,ITYPPGVKEISDKISKYEMVRRLK [E17Y],2
7,ITYPPGVKEISDKISKHEMVRRLK [E17H],4.17
8,ITYPPGVKEISDKISKPEMVRRLK [E17P],3.6
9,ITYPPGVKEISDKISKMEMVRRLK [E17M],2.65
10,ITYPPGVKEISDKISKEEMVRGLK [R22G],4.72
11,ITYPPGVKEISDKISKEEMVRTLK [R22T],4.41
12,ITYPPGVKEISDKISKEEMVRSLK [R22S],4.24
13,ITYPPGVKEISDKISKEEMVRFLK [R22F],3.85
14,ITYPPGVKEISDKISKEEMVRLLK [R22L],2.28
15,ITYPPGVKEISDKISKEEMVRKLK [R22K],3.86
16,ITYPPGVKEISDKISKEEMVRILK [R22I],2.71
17,ITYPPGVKEISDKISKEEMVRYLK [R22Y],2.95
18,ITYPPGVKEISDKISKEEMVRDLK [R22D],4.92
19,ITYPPGVKEISDKISKEEMVRNLK [R22N],4.54
20,ITYPPGVKEISDKISKEEMVRCLK [R22C],2.9
21,ITAPPGVKEISDKISKEEMVRRLK [Y3A],4.48
22,ITEPPGVKEISDKISKEEMVRRLK [Y3E],4.47
23,ITSPPGVKEISDKISKEEMVRRLK [Y3S],4.43
24,ITTPPGVKEISDKISKEEMVRRLK [Y3T],3.14

row,Variant,protein stability index
1,ITIPPGVKEISDKISKEEMVRRLK [Y3I],3.97
2,ITCPPGVKEISDKISKEEMVRRLK [Y3C],3.52
3,ITRPPGVKEISDKISKEEMVRRLK [Y3R],4.96
4,ITFPPGVKEISDKISKEEMVRRLK [Y3F],3.85
5,ITYPPGVKEISLKISKEEMVRRLK [D12L],3.18
6,ITYPPGVKEISWKISKEEMVRRLK [D12W],2.85
7,ITYPPGVKEISEKISKEEMVRRLK [D12E],3.57
8,ITYPPGVKEISKKISKEEMVRRLK [D12K],3.43
9,ITYPPGVKEISYKISKEEMVRRLK [D12Y],2.46
10,ITYPPGVKEISQKISKEEMVRRLK [D12Q],3.29
11,ITYPPGVKEISDKISKEEMKRRLK [V20K],4.17
12,ITYPPGVKEISDKISKEEMPRRLK [V20P],4.26
13,ITYPPGVKEISDKISKEEMDRRLK [V20D],5.06
14,ITYPPGVKEISDKISKEEMMRRLK [V20M],3.81
15,ITYPPGVKEISDKISKEEMYRRLK [V20Y],4.2
16,ITYPPGVKEISDKISKEEMLRRLK [V20L],3.49
17,ITYPPGVKEISDKISKEEMQRRLK [V20Q],4.03
18,ITYPPGVKEISDKISKEEMHRRLK [V20H],4.19
19,ITYPPGVKEISDKISKEEMSRRLK [V20S],4.83
20,ITYPPGVKEISDKISKEEMGRRLK [V20G],4.59
21,ITYPPGVKEISDKISKEEMRRRLK [V20R],4.61
22,ITYPPGVKEISDKISKEEMWRRLK [V20W],3.38
